Reference: article PMC6306002

Tested on: T1, OhsR:C125S C125S (Corynebacterium glutamicum), ORF:a3d30e29
T1 sequence: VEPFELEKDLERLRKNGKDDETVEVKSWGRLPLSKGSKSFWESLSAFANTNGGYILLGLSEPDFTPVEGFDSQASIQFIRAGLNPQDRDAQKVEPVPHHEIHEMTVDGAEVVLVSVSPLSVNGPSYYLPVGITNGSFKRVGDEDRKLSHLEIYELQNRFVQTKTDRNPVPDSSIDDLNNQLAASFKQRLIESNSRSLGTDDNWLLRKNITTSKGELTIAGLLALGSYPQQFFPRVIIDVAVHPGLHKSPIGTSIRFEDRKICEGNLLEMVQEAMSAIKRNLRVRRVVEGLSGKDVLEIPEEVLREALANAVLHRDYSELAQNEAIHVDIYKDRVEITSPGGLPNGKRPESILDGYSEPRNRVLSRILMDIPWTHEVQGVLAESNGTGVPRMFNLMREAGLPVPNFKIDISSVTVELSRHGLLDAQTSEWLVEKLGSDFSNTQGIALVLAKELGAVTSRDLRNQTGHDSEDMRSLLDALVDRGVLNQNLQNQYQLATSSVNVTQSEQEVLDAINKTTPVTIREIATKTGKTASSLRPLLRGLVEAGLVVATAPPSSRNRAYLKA
Experiment: EMSA
Details: EMSA: 20 mM Tris-HCl pH 7.4, 4 mM MgCl2, 100 mM NaCl, 10% glycerol, room temperature 30 min; 20 ng DNA, 0-4 ug OhsR; 6% native PAGE, 0.5x TBE, SYBR Green

Sequence: CACCTTGTTGGTGGGCCGGGATTTTTGTTGTTTAGATTTTTGAAAGCACACTTTTGTCCCTTAACTAGTGCGTGTGTACATTCGACACCAAGATTTGGGCAATATGGTGCCCAAAATCAGGAAATCTTGCTGTCTAATGCACAACGGAAAACTGCTCACGGACGAACTAGTTGTAGCGAGCGTATTCTTTGTGTTCTCTC (double strand) [Pohr (ohr promoter, 200 bp)]
- binding: no binding
